Source: the supplement of paper PMC7877785
± gives the uncertainty stated by the source.

Test: self-splicing fitness, log relative to wild type (ln ratio); higher = more splicing; Tetrahymena group I intron in knt gene, E. coli kanamycin selection, DiMSum; sequences stand for … in CUCUCU…GGAGGGAAAAGUUAUCAGGCAUGCACCUGGUAGCUAGUCUUUAAACCAAUAGAUUGCAUCGGUUUAAAAGGCAAGACCGUCAAAUUGCGGGAAAGGGGUCAACAGCCGUUCAGUACCAAGUCUCAGGGGAAACUUUGAGAUGGCCUUGCAAAGGGUAUGGUAAUAAGCUGACGGACAUGGUCCUAACCACGCAGCCAAGUCCUAAGUCAACAGAUCUUCUGUUGAUAUGGAUGCAGUUCACAGACUAAAUGUCGGUCGGGGAAGAUGUAUUCUUCUCAUAAGAUAUAGUCGGACCUCUCCUUAAUGGGAGCUAGCGGAUGAAGUGAUGCAACACUGGAGCCGCUGGGAACUAAUUUGUAUGCGAAAGUAUAUUGAUUAGUUUUGGAGUACUCGUGGUCG
Method in brief: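 Six replicate transformations of E. coli BL21(DE3) with a pET-22b(+) library were grown overnight at 37°C or 30°C. The library randomised all eight P1ex-region intron nucleotides, the intron lying in the knt kanamycin-resistance gene, and plates were LB agar with or without 25 μg/mL kanamycin plus 100 μg/mL carbenicillin, 50 μM IPTG and 0.2% rhamnose. Pooled colonies were amplicon-sequenced on an Illumina HiSeq 2500, and fitness is the DiMSum error-weighted combination of wild-type-normalised replicate fold changes, kanamycin versus none.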

Sequence	self-splicing fitness (ln) (30 °C)	self-splicing fitness (ln) (37 °C)
UCAUAGCAAUAUUACGUCUU	-3.28 ± 0.24	-3.53 ± 0.32
UCAUAGCAAUAUUACGUGCA	-1.06 ± 0.082	0.377 ± 0.092
UCAUAGCAAUAUUACGUGCC	-3.48 ± 0.41	-1.34 ± 0.23
UCAUAGCAAUAUUACGUUGA	-3.91 ± 0.29	-2.75 ± 0.16
UCCAAGCAAUAUUACGAACC	-1.65 ± 0.25	–
UCCAAGCAAUAUUACGAUGC	-2.69 ± 0.31	–
UCCAAGCAAUAUUACGCCCG	-2.32 ± 0.26	–
UCCAAGCAAUAUUACGCGUA	-0.121 ± 0.056	0.286 ± 0.06
UCCAAGCAAUAUUACGCGUU	-4.5 ± 0.19	-2.33 ± 0.15
UCCAAGCAAUAUUACGCUGU	-2.3 ± 0.14	-2.25 ± 0.17
UCCAAGCAAUAUUACGCUUU	-3.8 ± 0.18	-2.16 ± 0.19
UCCAAGCAAUAUUACGGCGC	-2.4 ± 0.14	-2.5 ± 0.15
UCCAAGCAAUAUUACGGGAU	-3.88 ± 0.22	-2.52 ± 0.16
UCCAAGCAAUAUUACGGGUA	-0.53 ± 0.062	0.199 ± 0.066
UCCAAGCAAUAUUACGGUUG	-3.43 ± 0.13	-3.04 ± 0.19
UCCAAGCAAUAUUACGUAAU	-1.94 ± 0.11	-0.725 ± 0.14
UCCAAGCAAUAUUACGUACC	-2.68 ± 0.19	-2.18 ± 0.26
UCCAAGCAAUAUUACGUCAU	-3.09 ± 0.14	-1.39 ± 0.11
UCCAAGCAAUAUUACGUGAC	-3.7 ± 0.3	-3.17 ± 0.35
UCCCAGCAAUAUUACGAAAA	-2.38 ± 0.2	-0.834 ± 0.18
UCCCAGCAAUAUUACGAACG	-2.94 ± 0.31	-2.39 ± 0.29
UCCCAGCAAUAUUACGAAUA	-2.11 ± 0.1	-1.42 ± 0.11
UCCCAGCAAUAUUACGACCC	-2.89 ± 0.31	-2.44 ± 0.35
UCCCAGCAAUAUUACGAGCU	-3.05 ± 0.17	-2.18 ± 0.2
UCCCAGCAAUAUUACGAUAU	-3.15 ± 0.18	-1.74 ± 0.22

Sequence	self-splicing fitness (ln) (30 °C)	self-splicing fitness (ln) (37 °C)
UCCCAGCAAUAUUACGAUGA	-0.0138 ± 0.055	0.23 ± 0.069
UCCCAGCAAUAUUACGCAAG	-3.45 ± 0.16	-2.69 ± 0.21
UCCCAGCAAUAUUACGCACA	-1 ± 0.071	-0.318 ± 0.095
UCCCAGCAAUAUUACGCACC	–	-1.21 ± 0.35
UCCCAGCAAUAUUACGCCCA	-1.5 ± 0.18	-0.396 ± 0.14
UCCCAGCAAUAUUACGCUAC	–	-2.27 ± 0.32
UCCCAGCAAUAUUACGCUGG	-3.94 ± 0.16	-2.62 ± 0.16
UCCCAGCAAUAUUACGCUUC	-2.73 ± 0.19	-2.76 ± 0.48
UCCCAGCAAUAUUACGCUUG	-3.31 ± 0.15	-2.4 ± 0.19
UCCCAGCAAUAUUACGGCAA	-0.595 ± 0.1	0.128 ± 0.11
UCCCAGCAAUAUUACGGGAG	-3.44 ± 0.14	-2.01 ± 0.11
UCCCAGCAAUAUUACGGGCA	-0.512 ± 0.082	-0.2 ± 0.097
UCCCAGCAAUAUUACGGUCA	-0.0309 ± 0.062	0.226 ± 0.072
UCCCAGCAAUAUUACGUAUC	-3.32 ± 0.29	-1.35 ± 0.2
UCCCAGCAAUAUUACGUCUA	-2.5 ± 0.21	-2.12 ± 0.22
UCCCAGCAAUAUUACGUUCC	-2.26 ± 0.21	-2.44 ± 0.27
UCCGAGCAAUAUUACGAGAA	-1.91 ± 0.35	-2.27 ± 0.38
UCCGAGCAAUAUUACGAGAU	-3.41 ± 0.24	-2.02 ± 0.29
UCCGAGCAAUAUUACGAUUA	-1.94 ± 0.28	-1.72 ± 0.26
UCCGAGCAAUAUUACGCACA	-3.21 ± 0.22	-0.221 ± 0.13
UCCGAGCAAUAUUACGCAUG	-2.8 ± 0.32	-2.36 ± 0.3
UCCGAGCAAUAUUACGCCCA	-4.21 ± 0.36	-2.83 ± 0.35
UCCGAGCAAUAUUACGCCUC	–	-1.34 ± 0.33
UCCGAGCAAUAUUACGCGAC	-2.63 ± 0.41	-1.58 ± 0.4
UCCGAGCAAUAUUACGCGGU	-3.33 ± 0.26	-1.58 ± 0.17

Sequence	self-splicing fitness (ln) (30 °C)	self-splicing fitness (ln) (37 °C)
UCCGAGCAAUAUUACGGAAC	-2.97 ± 0.33	–
UCCGAGCAAUAUUACGGAUG	-4.09 ± 0.35	-1.77 ± 0.2
UCCGAGCAAUAUUACGGCAA	-1.43 ± 0.11	-0.233 ± 0.13
UCCGAGCAAUAUUACGGCGA	-0.0162 ± 0.1	-0.0341 ± 0.12
UCCGAGCAAUAUUACGGGAG	-3.81 ± 0.22	-2.79 ± 0.19
UCCGAGCAAUAUUACGGGGA	-1.93 ± 0.15	-0.603 ± 0.11
UCCGAGCAAUAUUACGGUAA	-2.21 ± 0.18	-1.08 ± 0.12
UCCGAGCAAUAUUACGGUCC	-3.08 ± 0.24	-3.35 ± 0.33
UCCGAGCAAUAUUACGUGCG	-3.49 ± 0.43	-2.63 ± 0.34
UCCGAGCAAUAUUACGUUGG	-3.33 ± 0.21	-1.78 ± 0.24
UCCUAGCAAUAUUACGAAUG	–	-2.76 ± 0.44
UCCUAGCAAUAUUACGAGAG	-3.57 ± 0.17	-2.51 ± 0.2
UCCUAGCAAUAUUACGAGUU	-3.71 ± 0.3	-1.24 ± 0.18
UCCUAGCAAUAUUACGCAAC	-2.76 ± 0.21	-3.38 ± 0.42
UCCUAGCAAUAUUACGCAAU	-2.64 ± 0.21	-2.05 ± 0.25
UCCUAGCAAUAUUACGCCAC	-1.72 ± 0.28	-1.15 ± 0.27
UCCUAGCAAUAUUACGCCUA	-2.01 ± 0.41	–
UCCUAGCAAUAUUACGCGGA	-3.3 ± 0.26	-2.51 ± 0.25
UCCUAGCAAUAUUACGCGUU	-2.01 ± 0.095	-0.94 ± 0.1
UCCUAGCAAUAUUACGCUAC	-2.35 ± 0.15	-0.883 ± 0.3
UCCUAGCAAUAUUACGCUCA	–	-2.48 ± 0.42
UCCUAGCAAUAUUACGCUUC	-3.48 ± 0.18	-3.1 ± 0.23
UCCUAGCAAUAUUACGGAGC	-3.26 ± 0.29	-1.98 ± 0.18
UCCUAGCAAUAUUACGGCGC	-2.21 ± 0.24	-1.69 ± 0.23
UCCUAGCAAUAUUACGGGAU	-4.1 ± 0.22	-2.18 ± 0.17

Sequence	self-splicing fitness (ln) (30 °C)	self-splicing fitness (ln) (37 °C)
UCCUAGCAAUAUUACGUAAA	-1.84 ± 0.19	0.0696 ± 0.22
UCCUAGCAAUAUUACGUAAG	-3.31 ± 0.24	-2.4 ± 0.23
UCCUAGCAAUAUUACGUACC	-2.36 ± 0.47	–
UCCUAGCAAUAUUACGUCUU	-4.03 ± 0.23	-2.05 ± 0.14
UCCUAGCAAUAUUACGUGAC	-3.85 ± 0.2	-3.03 ± 0.21
UCCUAGCAAUAUUACGUUAC	-3.48 ± 0.25	-2.09 ± 0.25
UCCUAGCAAUAUUACGUUUC	-2.36 ± 0.4	-3.04 ± 0.43
UCGAAGCAAUAUUACGACAG	-3.08 ± 0.23	-1.87 ± 0.31
UCGAAGCAAUAUUACGACCA	-1.16 ± 0.15	-1.09 ± 0.18
UCGAAGCAAUAUUACGAGGG	-2.48 ± 0.15	-1.62 ± 0.2
UCGAAGCAAUAUUACGAGGU	-3.45 ± 0.4	-2.03 ± 0.29
UCGAAGCAAUAUUACGAGUU	-3.31 ± 0.15	-2.04 ± 0.21
UCGAAGCAAUAUUACGCAUU	-1.97 ± 0.19	-2.46 ± 0.26
UCGAAGCAAUAUUACGCGAC	-3.47 ± 0.25	-2.2 ± 0.26
UCGAAGCAAUAUUACGCGCU	-2.18 ± 0.2	-0.209 ± 0.24
UCGAAGCAAUAUUACGCGGA	-3.61 ± 0.39	-1.35 ± 0.17
UCGAAGCAAUAUUACGCUAU	-3.24 ± 0.19	-3.36 ± 0.42
UCGAAGCAAUAUUACGCUGA	-3.44 ± 0.33	-2.31 ± 0.29
UCGAAGCAAUAUUACGGAAC	-3.33 ± 0.38	-0.421 ± 0.39
UCGAAGCAAUAUUACGGAGU	-3.99 ± 0.28	-1.03 ± 0.15
UCGAAGCAAUAUUACGGCGC	-3.11 ± 0.34	-2.04 ± 0.32
UCGAAGCAAUAUUACGGGUC	-4.14 ± 0.33	-2.54 ± 0.44
UCGAAGCAAUAUUACGGUAA	-2.11 ± 0.16	-0.334 ± 0.13
